In patent US20090170763A1 (KENJI KANGAWA, published 2009):
Square brackets hold non-standard residues; d marks the D form. Ends that are not written are not given here. * marks the point of attachment. Trt = c1ccc(C(c2ccccc2)(c2ccccc2)*)cc1; Octanoyl = CCCCCCCC(=O)*; Aib = CC(C)(N)C(=O)O; Octyl = CCCCCCCC*

Tests used:
Experiment in all cases: cell-based or functional assay
[1] = molecular target: rat GHS-R (GHS receptor) expressed on CHO-GHSR62 cells (rat) (UniProt O08725)
[2] = molecular target: T1, rat GHS-R (GHS receptor) expressed on CHO-GHSR62 cells (rat, UniProt O08725 1-364)
[3] = molecular target: T1, rat GHS-R (GHS receptor) expressed on …; remark: listed apart in the source

T1 sequence (O08725 whole entry): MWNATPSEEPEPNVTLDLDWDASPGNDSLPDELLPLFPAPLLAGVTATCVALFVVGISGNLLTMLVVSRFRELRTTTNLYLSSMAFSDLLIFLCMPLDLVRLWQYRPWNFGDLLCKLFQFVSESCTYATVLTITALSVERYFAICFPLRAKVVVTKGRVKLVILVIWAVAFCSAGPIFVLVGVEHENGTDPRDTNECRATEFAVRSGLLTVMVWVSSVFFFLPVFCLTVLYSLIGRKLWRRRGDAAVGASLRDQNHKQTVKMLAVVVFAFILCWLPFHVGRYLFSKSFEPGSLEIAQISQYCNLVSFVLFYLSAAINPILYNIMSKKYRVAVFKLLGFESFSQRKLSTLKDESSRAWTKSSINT
Sequence of rat GHS-R (GHS receptor) expressed on CHO-GHSR62 cells (rat) (O08725 whole entry): as above

| Ca-releasing activity EC50 [1] [nM] | Activity EC50 [1] [nM] | Binder | other results |
| --- | --- | --- | --- |
| 380 | – | GS(Octanoyl)FLSP-NH2 (N-terminus assumed; SMILES CCCCCCCC(=O)OC[C@H](NC(=O)CN)C(=O)N[C@@H](Cc1ccccc1)C(=O)N[C@@H](CC(C)C)C(=O)N[C@@H](CO)C(=O)N1CCC[C@H]1C(N)=O) [[N-Glycyl]-Ghrelin (3-7)-amide] | – |
| – | 11 | GSS(Octanoyl)FLSK-NH2 (N-terminus assumed; SMILES CCCCCCCC(=O)OC[C@H](NC(=O)[C@H](CO)NC(=O)CN)C(=O)N[C@@H](Cc1ccccc1)C(=O)N[C@@H](CC(C)C)C(=O)N[C@@H](CO)C(=O)N[C@@H](CCCCN)C(N)=O) [[Lys^7]-Ghrelin (1-7)-amide] | – |
| 1700 | – | GSS(Octanoyl)[dF]K-NH2 (N-terminus assumed; SMILES CCCCCCCC(=O)OC[C@H](NC(=O)[C@H](CO)NC(=O)CN)C(=O)N[C@H](Cc1ccccc1)C(=O)N[C@@H](CCCCN)C(N)=O) [[^DPhe^4,Lys^5]-Ghrelin (1-5)-amide] | – |
| 1.1 | – | GSS(Octanoyl)FLSPR-NH2 (N-terminus assumed; SMILES CCCCCCCC(=O)OC[C@H](NC(=O)[C@H](CO)NC(=O)CN)C(=O)N[C@@H](Cc1ccccc1)C(=O)N[C@@H](CC(C)C)C(=O)N[C@@H](CO)C(=O)N1CCC[C@H]1C(=O)N[C@@H](CCCNC(=N)N)C(N)=O) [[Arg^8]-Ghrelin (1-8)-amide] | – |
| 35 | – | GHS(Octanoyl)FLSP-NH2 (N-terminus assumed; SMILES CCCCCCCC(=O)OC[C@H](NC(=O)[C@H](Cc1c[nH]cn1)NC(=O)CN)C(=O)N[C@@H](Cc1ccccc1)C(=O)N[C@@H](CC(C)C)C(=O)N[C@@H](CO)C(=O)N1CCC[C@H]1C(N)=O) [[His^2]-Ghrelin (1-7)-amide] | – |
| 1.1 | – | GSS(Octanoyl)FLSPK-NH2 (N-terminus assumed; SMILES CCCCCCCC(=O)OC[C@H](NC(=O)[C@H](CO)NC(=O)CN)C(=O)N[C@@H](Cc1ccccc1)C(=O)N[C@@H](CC(C)C)C(=O)N[C@@H](CO)C(=O)N1CCC[C@H]1C(=O)N[C@@H](CCCCN)C(N)=O) [[Lys^8]-Ghrelin (1-8)-amide] | – |
| – | 34 | [Aib]HS(Octyl)FK-NH2 (N-terminus assumed; SMILES CCCCCCCCOC[C@H](NC(=O)[C@H](Cc1c[nH]cn1)NC(=O)C(C)(C)N)C(=O)N[C@@H](Cc1ccccc1)C(=O)N[C@@H](CCCCN)C(N)=O) [[Aib^1,His^2,Ser^3(Octyl),Lys^5]-Ghrelin (1-5)-amide] | – |
| – | 0.91 | GSXFLSPEHQRVQQRKESKKPPAKLQPR (position 3 (X) is 2-aminododecanoic acid (Adod; side chain n-C10H21)) [[Adod^3]-hGhrelin] | – |
| – | 19 | GSXFLSPEHQRVQQRKESKKPPAKLQPR (position 3 (X) is cyclohexylalanine (Cha)) [[Cha^3]-hGhrelin] | – |
| – | 20 | GSC(Trt)FLSPEHQRVQQRKESKKPPAKLQPR [[Cys^3(Trityl)]-hGhrelin] | – |
| 10 | – | GSS(Octanoyl)FK-NH2 (N-terminus assumed; SMILES CCCCCCCC(=O)OC[C@H](NC(=O)[C@H](CO)NC(=O)CN)C(=O)N[C@@H](Cc1ccccc1)C(=O)N[C@@H](CCCCN)C(N)=O) [[Lys^5]-Ghrelin (1-5)-amide] | – |
| – | 8.2 | GSXFLSPEHQRVQQRKESKKPPAKLQPR (position 3 (X) is 2-L-naphthylalanine (Nal)) [[2-^LNal^3]-hGhrelin] | EC50 value [1]: 8.2 nM |
| 78 | – | GGS(Octanoyl)FLSP-NH2 (N-terminus assumed; SMILES CCCCCCCC(=O)OC[C@H](NC(=O)CNC(=O)CN)C(=O)N[C@@H](Cc1ccccc1)C(=O)N[C@@H](CC(C)C)C(=O)N[C@@H](CO)C(=O)N1CCC[C@H]1C(N)=O) [[Gly^2]-Ghrelin (1-7)-amide] | – |
| 7.4 | – | GSC(Octyl)FLSP-NH2 (N-terminus assumed; SMILES CCCCCCCCSC[C@H](NC(=O)[C@H](CO)NC(=O)CN)C(=O)N[C@@H](Cc1ccccc1)C(=O)N[C@@H](CC(C)C)C(=O)N[C@@H](CO)C(=O)N1CCC[C@H]1C(N)=O) [[Cys^3(Octyl)]-Ghrelin (1-7)-amide] | – |
| – | > 10000 | GSXFLSPEHQRVQQRKESKKPPAKLQPR (position 3 (X) is 2-D-naphthylalanine (D-Nal)) [[2-^DNal^3]-hGhrelin] | – |
| 120 | – | YGSS(Octanoyl)FLSPEHQKAQQRKESKKPPAKLQPR [[N-Tyr]-rGhrelin] | – |
| – | 1.4 | GSC(S‑heptyl)FLSPEHQRVQQRKESKKPPAKLQPR [[Cys^3(S-Heptyl)]-hGhrelin] | – |

More lines, now with the values behind:

| Binder | Ca-releasing activity EC50 [1] [nM] | Activity EC50 [1] [nM] | other results |
| --- | --- | --- | --- |
| GSS(Octanoyl)F-NH2 (N-terminus assumed; SMILES CCCCCCCC(=O)OC[C@H](NC(=O)[C@H](CO)NC(=O)CN)C(=O)N[C@@H](Cc1ccccc1)C(N)=O) [Ghrelin (1-4)-amide] | – | – | Ca-releasing activity EC50 [2]: 160 nM |
| GSC(Octyl)[dF]LSP-NH2 (N-terminus assumed; SMILES CCCCCCCCSC[C@H](NC(=O)[C@H](CO)NC(=O)CN)C(=O)N[C@H](Cc1ccccc1)C(=O)N[C@@H](CC(C)C)C(=O)N[C@@H](CO)C(=O)N1CCC[C@H]1C(N)=O) [[Cys^3(Octyl),^DPhe^4]-Ghrelin (1-7)-amide] | 3000 | – | – |
| GSXFLSPEHQRVQQRKESKKPPAKLQPR (position 3 (X) is L-2,3-diaminopropionic acid (Dap) with N-octanoyl side chain (CH2NHCO-C7H15)) [[Dap^3(Octanoyl)]-hGhrelin] | – | 2.6 | – |
| GSDFLSPEHQRVQQRKESKKPPAKLQPR (Asp 3 side-chain heptylamide (NH-C7H15)) [[Asp^3(NH-Heptyl)]-hGhrelin] | – | 11 | – |
| GSS(Octanoyl)FLSPE-NH2 (N-terminus assumed; SMILES CCCCCCCC(=O)OC[C@H](NC(=O)[C@H](CO)NC(=O)CN)C(=O)N[C@@H](Cc1ccccc1)C(=O)N[C@@H](CC(C)C)C(=O)N[C@@H](CO)C(=O)N1CCC[C@H]1C(=O)N[C@@H](CCC(=O)O)C(N)=O) [Ghrelin (1-8)-amide] | – | – | Ca-releasing activity EC50 [2]: 13 nM |
| GSS(Octanoyl)FLS-NH2 (N-terminus assumed; SMILES CCCCCCCC(=O)OC[C@H](NC(=O)[C@H](CO)NC(=O)CN)C(=O)N[C@@H](Cc1ccccc1)C(=O)N[C@@H](CC(C)C)C(=O)N[C@@H](CO)C(N)=O) [Ghrelin (1-6)-amide] | – | – | Ca-releasing activity EC50 [2]: 4.8 nM |
| GSS(Octanoyl)FLSP-NH2 (N-terminus assumed; SMILES CCCCCCCC(=O)OC[C@H](NC(=O)[C@H](CO)NC(=O)CN)C(=O)N[C@@H](Cc1ccccc1)C(=O)N[C@@H](CC(C)C)C(=O)N[C@@H](CO)C(=O)N1CCC[C@H]1C(N)=O) [Ghrelin (1-7)-amide] | – | – | Ca-releasing activity EC50 [2]: 2.6 nM |
| Gly-Ser-Ser(Octanoyl)-NH2 (N-terminus assumed; SMILES CCCCCCCC(=O)OC[C@H](NC(=O)[C@H](CO)NC(=O)CN)C(N)=O) [Ghrelin (1-3)-amide] | – | – | Ca-releasing activity EC50 [2]: > 10000 nM |
| GSS(Octanoyl)FLSPEHQK [rGhrelin (1-11)] | – | – | Ca-releasing activity (EC50, nM) [3]: 15 nM; Ca-releasing activity EC50 [2]: 15 nM |
| GSS(Octanoyl)FLSPEHQR [hGhrelin (1-11)] | – | – | Ca-releasing activity (EC50, nM) [3]: 15 nM; Ca-releasing activity EC50 [2]: 15 nM |
| GSS(Octanoyl)FL-NH2 (N-terminus assumed; SMILES CCCCCCCC(=O)OC[C@H](NC(=O)[C@H](CO)NC(=O)CN)C(=O)N[C@@H](Cc1ccccc1)C(=O)N[C@@H](CC(C)C)C(N)=O) [Ghrelin (1-5)-amide] | – | – | Ca-releasing activity EC50 [2]: 6.2 nM |
| GSDFLSPEHQRVQQRKESKKPPAKLQPR (Asp 3 side-chain heptyl ester (O-C7H15)) [[Asp^3(O-Heptyl)]-hGhrelin] | – | 5.1 | – |
| GST(Octanoyl)FLSPEHQRVQQRKESKKPPAKLQPR [[Thr^3(Octanoyl)]-hGhrelin] | – | 10 | – |
| GSS(Octanoyl)FLK-NH2 (N-terminus assumed; SMILES CCCCCCCC(=O)OC[C@H](NC(=O)[C@H](CO)NC(=O)CN)C(=O)N[C@@H](Cc1ccccc1)C(=O)N[C@@H](CC(C)C)C(=O)N[C@@H](CCCCN)C(N)=O) [[Lys^6]-Ghrelin (1-6)-amide] | 12 | – | – |
| GSC(Octyl)FLSPEHQKAQQRKESKKPPAKLQPR [[Cys^3(Octyl)]-rGhrelin] | 5.4 | – | EC50 value [1]: 5.4 nM |
| GSXFLSPEHQRVQQRKESKKPPAKLQPR (position 3 (X) is norleucine (Nle)) [[Nle^3]-hGhrelin] | – | 2800 | – |
| [Aib]H[dS](Octyl)[dF]K-NH2 (N-terminus assumed; SMILES CCCCCCCCOC[C@@H](NC(=O)[C@H](Cc1c[nH]cn1)NC(=O)C(C)(C)N)C(=O)N[C@H](Cc1ccccc1)C(=O)N[C@@H](CCCCN)C(N)=O) [[Aib^1,His^2,^DSer^3(Octyl),^DPhe^4,Lys^5]-Ghrelin (1-5)-amide] | – | 38 | – |
| GSS(Octanoyl)FL [Ghrelin (1-5)] | – | – | Ca-releasing activity EC50 [2]: 68 nM |
| GKS(Octanoyl)FLSP-NH2 (N-terminus assumed; SMILES CCCCCCCC(=O)OC[C@H](NC(=O)[C@H](CCCCN)NC(=O)CN)C(=O)N[C@@H](Cc1ccccc1)C(=O)N[C@@H](CC(C)C)C(=O)N[C@@H](CO)C(=O)N1CCC[C@H]1C(N)=O) [[Lys^2]-Ghrelin (1-7)-amide] | 24 | – | – |
